The results in this text go back to US20150098947A1 (RESEARCH DEVELOPMENT FOUNDATION, published 2015).

Assay [1] has as its target T1, Olfml-3 peptide B (human Olfml3 390-403 aa, olfactomedin-like domain) (human).
T1 peptide: GYQIVYKLEMRKKE
The experiment in a line: peptide binding test (ELISA). On the technique in general: An ELISA detects its analyte on a solid surface through an enzyme-linked reagent.

The target of assay [2] is T2, Olfml-3 peptide A (human Olfml3 86-99 aa, coiled-coil domain) (human).
T2 peptide: RVDRLEREVDYLET
The experiment in a line: peptide binding test (ELISA).

Another assay deals with T3, human Olfml3-FLAG (human, UniProt Q9NRN5 22-406, limits assumed).
T3 construct: Screening antigen of the hybridoma ELISA; the tag is written last only by convention; not shown: FLAG tag
T3 sequence (looked up): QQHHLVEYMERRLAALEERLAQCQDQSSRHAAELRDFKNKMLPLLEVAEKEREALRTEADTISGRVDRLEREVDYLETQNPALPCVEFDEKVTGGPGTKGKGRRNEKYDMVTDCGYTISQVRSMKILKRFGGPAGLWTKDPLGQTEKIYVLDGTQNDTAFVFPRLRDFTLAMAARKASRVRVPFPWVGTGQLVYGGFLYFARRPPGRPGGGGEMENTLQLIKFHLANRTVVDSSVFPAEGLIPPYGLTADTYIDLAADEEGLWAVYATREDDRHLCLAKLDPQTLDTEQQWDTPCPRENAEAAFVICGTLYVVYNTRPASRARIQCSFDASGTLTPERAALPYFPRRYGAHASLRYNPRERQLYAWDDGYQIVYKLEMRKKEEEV
The experiment in a line: hybridoma screening ELISA. On the procedure: The inventors produced a panel of monoclonal antibodies against a recombinant Olfml-3 protein. Three antibodies against human Olfml3 were generated using standard techniques by injecting simultaneously two 14-aa long peptides comprising epitopes in the coiled-coil (peptide A, 86-99 aa: […]; SEQ ID NO: 5) and the olfactomedin-like domains (peptide B, 390-403 aa: […]; SEQ ID NO: 6) as immunogens in rats (Aurrand-Lions et al., 1996). Briefly, human Olfml3 peptides A and B coupled to 100 μg KLH carrier protein (keyhole limpet hemocyanin, Pierce) and mixed with adjuvant 56322 (Sigma), were used to immunize female Wister rats. In total, three injections were performed every 9 days. Two days after a final s.c. injection of human Olfml3 peptides, blasts from draining lymph nodes were fused to Sp2/0 cells, and hybridomas were selected in HAT-containing medium (Life Technologies). Growing clones were screened by ELISA for the production of monoclonal antibodies recognizing specifically human Olfml3-FLAG. Positive clones were subcloned, rescreened, and further tested. Antibodies were purified on protein G-Sepharose columns (GE HealthCare) according to the manufacturer instructions. Two Olfml3-binding antibodies, 46A9BO and 9F8BO, are of IgG2b isotype subclass and one, Z14A7, is of IgG2c isotype subclass. The 46A9BO and 9F8BO monoclonal antibodies were used for in vivo tumor graft models.

B1: 46A9BO monoclonal antibody (glycosylated) (antibody, IgG2b, V domains shown)
VH: AVHLVESGGGLVQPKESLKISCAASGFTFSNAAMYWVRQAPGKGLEWVARIRTKPNDYATYYVDSVKGRFTISRDDSQSMVYLQMDNLKTEDTAMYYCTAFTEPDYWGQGVMVTVSS
VL: LIQPPSASVTLGSTVSLTCVGDELSKTYAHWYQQKPDKTIVSVIYKDSERPSGISDRFSGSSSGTTATLTIHGTLAEDEADYYCLSTYSDDNLPVFGGGTKLTVL
notes: also called mAb 2; anti-Olfml-3B
B1: the binding result was “binds” in assay [1], “no binding” in assay [2] and “binds” in the assay with human Olfml3-FLAG.

B2: deglycosylated 46A9BO antibody (antibody, V domains shown)
VH: B1 VH
VL: B1 VL
notes: Same rat IgG2b antibody as 46A9BO after deglycosylation; also called 46A9BO (deglycosylated)
On to B2, for which the binding result in assay [1] is “binds”; in assay [2], “no binding”.

B3: Z14A7 monoclonal antibody (antibody, IgG2c, V domains shown)
VH: EVQLVETGGSLVQPGKSLKLTCATSGFTFSNAWMHWVRQSPEKQLEWVAQIKAKSNNYATYYAESVKGRFTISRDDSKSSIYLQMNSLKEEDTAIYYCLYGYYFDYWGQGVMVTVSS
VL: DVVMTQTPVSLPVSLGGQASISCRSSQSLIHSNGNTYLHWFLQKPGQSPQLLIYRISNRFSGVPDRFSGSGSGTDFTLKISRVESEDLGLYYCLQGTHLPFTFGSGTKLEIKR
notes: Rat hybridoma antibody, IgG2c
As for B3, the binding result in the assay with human Olfml3-FLAG is reported as “binds”.
